The target of experiment [1] is SHEP1 cell (surface binding partners of WGA not named). Nature of the experiment: z-modulation FFT microscopy on a fixed SHEP1 cell, 10, 20 and 50 µg/ml WGA, first order kinetic model fit.
The target of experiment [2] is glycoprotein on Barrett's esophagus derived CP-D (CP-18821) cells. Description: cell edge tracking (mechanical deformation) by phase contrast microscopy on fixed CP-D cells, 5 ug/ml WGA, first order kinetics fit.
Experiment [3] shares this target. Nature of the experiment: cell edge tracking (mechanical deformation) by phase contrast microscopy on fixed CP-D cells, 20 ug/ml WGA, first order kinetics fit.

The term Kd denotes the constant that tells how readily two partners part at equilibrium. A low value points to tighter binding. The term koff denotes the first-order rate constant of dissociation. A high value points to a short-lived complex. As usually defined, the kon is the rate constant with which the complex forms. Low readings indicate slow association, high ones fast association. As for “Wheat germ agglutinin (WGA) (from UniProt P10968 27-197)”, in experiment [1], the Kd was 125 nM, the koff turned out to be 0.013 s⁻¹ and the kon was 14000 M⁻¹ s⁻¹. In experiment [2], this substance displayed a Kd of 14 nM, a koff of 0.00156 s⁻¹ and a kon of 109000 M⁻¹ s⁻¹. In experiment [3], the dissociation constant (Kd) amounted to 21 nM, the koff stood at 0.0029 s⁻¹ and the kon is 140000 M⁻¹ s⁻¹.

Values taken from patent US20160169873A1.
